Measurements from publication PMC5308896, “A conformational switch regulates the ubiquitin ligase HUWE1” (eLife, 2017).
Ends that are not written are not given here.

How the values were obtained:
Test in all cases: fluorescence polarisation; apparent KD; constant 1 μM TAMRA-labelled p14ARF (45–64) peptide titrated with HUWE1 protein; 25°C, 20 mM HEPES pH 8.0, 150 mM NaCl, 10% glycerol, 1 mM EDTA, 5 mM DTT; three independent experiments
Details in all cases: both partners purified
[1] = biological target: T1, MBP-tagged activation segment of HUWE1 (residues 3843–3902) (human, UniProt Q7Z6Z7 3843-3902)
T1 construct: pETM41: N-terminal TEV protease-cleavable MBP-tag, C-terminal 3C protease-cleavable His6-tag; source: E. coli BL21(DE3), purified (IMAC, gel filtration); not shown: MBP, N-terminal, kept; His6, C-terminal, kept
T1 sequence (looked up): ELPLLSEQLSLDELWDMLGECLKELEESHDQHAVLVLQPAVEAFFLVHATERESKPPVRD

[2] = biological target: T2, HUWE1 (3896–4374) (human, UniProt Q7Z6Z7 3896-4374)
T2 construct: source: LOBSTR RIL cells, purified (IMAC, gel filtration)
T2 sequence (looked up): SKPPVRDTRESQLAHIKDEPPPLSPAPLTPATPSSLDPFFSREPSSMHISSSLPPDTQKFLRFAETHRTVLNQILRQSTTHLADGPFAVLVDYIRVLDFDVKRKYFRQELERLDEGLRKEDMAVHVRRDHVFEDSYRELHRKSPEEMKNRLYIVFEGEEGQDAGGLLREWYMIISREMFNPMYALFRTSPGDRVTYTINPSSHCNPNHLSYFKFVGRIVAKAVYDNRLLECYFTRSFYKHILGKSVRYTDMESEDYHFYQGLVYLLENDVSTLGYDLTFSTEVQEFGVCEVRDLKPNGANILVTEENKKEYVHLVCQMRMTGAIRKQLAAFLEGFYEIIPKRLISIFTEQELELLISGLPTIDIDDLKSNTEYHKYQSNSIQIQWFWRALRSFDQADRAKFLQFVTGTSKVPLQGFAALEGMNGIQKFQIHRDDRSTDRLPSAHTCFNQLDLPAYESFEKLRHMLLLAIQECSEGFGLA

[3] = biological target: T3, HUWE1 (3810–4374) (human, UniProt Q7Z6Z7 3810-4374)
T3 construct: source: LOBSTR RIL cells, purified (IMAC, gel filtration)
T3 sequence (looked up): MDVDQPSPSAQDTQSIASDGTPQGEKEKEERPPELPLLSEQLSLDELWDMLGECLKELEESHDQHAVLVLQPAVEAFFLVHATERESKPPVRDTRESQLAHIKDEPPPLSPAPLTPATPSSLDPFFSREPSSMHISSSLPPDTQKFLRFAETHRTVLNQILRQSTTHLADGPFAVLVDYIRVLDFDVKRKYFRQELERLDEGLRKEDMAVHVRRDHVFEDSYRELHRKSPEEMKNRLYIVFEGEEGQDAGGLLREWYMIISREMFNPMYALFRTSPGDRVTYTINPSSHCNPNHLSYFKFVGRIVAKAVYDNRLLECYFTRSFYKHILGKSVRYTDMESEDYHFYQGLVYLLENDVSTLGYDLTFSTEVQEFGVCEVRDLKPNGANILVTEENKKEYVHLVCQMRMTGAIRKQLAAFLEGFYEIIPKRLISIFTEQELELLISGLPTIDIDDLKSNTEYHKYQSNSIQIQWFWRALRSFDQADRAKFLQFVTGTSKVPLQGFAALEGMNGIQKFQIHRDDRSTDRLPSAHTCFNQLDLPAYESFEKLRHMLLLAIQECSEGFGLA

[4] = biological target: T4, HUWE1 (3759–4374) (human, UniProt Q7Z6Z7 3759-4374)
T4 construct: also called extended C-terminal HUWE1 fragment; source: LOBSTR RIL cells, purified (IMAC, gel filtration)
T4 sequence (looked up): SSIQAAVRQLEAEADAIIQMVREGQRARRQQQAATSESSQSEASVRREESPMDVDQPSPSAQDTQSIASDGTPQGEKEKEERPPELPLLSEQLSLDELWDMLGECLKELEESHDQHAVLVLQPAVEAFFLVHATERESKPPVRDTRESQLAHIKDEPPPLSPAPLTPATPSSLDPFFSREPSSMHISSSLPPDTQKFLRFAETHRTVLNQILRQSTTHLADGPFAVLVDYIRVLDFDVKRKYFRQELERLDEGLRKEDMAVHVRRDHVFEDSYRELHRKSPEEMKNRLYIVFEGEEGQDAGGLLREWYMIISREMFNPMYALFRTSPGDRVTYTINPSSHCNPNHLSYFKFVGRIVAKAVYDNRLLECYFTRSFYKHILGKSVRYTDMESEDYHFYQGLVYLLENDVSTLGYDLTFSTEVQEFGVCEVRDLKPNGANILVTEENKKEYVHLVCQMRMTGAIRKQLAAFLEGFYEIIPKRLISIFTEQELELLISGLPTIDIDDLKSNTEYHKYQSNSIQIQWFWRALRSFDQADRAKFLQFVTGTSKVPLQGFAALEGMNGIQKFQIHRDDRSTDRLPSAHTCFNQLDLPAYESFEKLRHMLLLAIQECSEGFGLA

- Kd [1]: 3.6 ± 0.2 µM
- Kd [2]: 340 ± 60 µM
- Kd [3]: 6 ± 1 µM
- Kd [4]: 7.7 ± 0.4 µM
B1: fluorophor-labeled p14ARF-derived peptide (residues 45–64), TAMRA-labelled (peptide)
peptide: LVLMLLRSQRLGQQPLPRRPK(TAMRA)
notes: p14ARF (alternative reading frame product of CDKN2A), human, residues 45–64; additional lysine residue at the C-terminus that carries the TAMRA label (told in words); also called p14ARF-peptide; p14ARF (45-64); source: synthetic peptide, bought: Elim Biopharm
